Data from US20240182536A1 (MURAL ONCOLOGY, published 2024).
Substitutions are numbered along the chain they refer to. Names may count otherwise. Where two headings read alike, the source gives them in different places.

Columns and labels:
[1] = target: T1, IL-18 receptor (IL-18Rα and IL-18Rβ) (UniProt Q13478 19-541; O95256 20-599, limits assumed); assay: cell-based or functional assay
T1 sequence (looked up) 1: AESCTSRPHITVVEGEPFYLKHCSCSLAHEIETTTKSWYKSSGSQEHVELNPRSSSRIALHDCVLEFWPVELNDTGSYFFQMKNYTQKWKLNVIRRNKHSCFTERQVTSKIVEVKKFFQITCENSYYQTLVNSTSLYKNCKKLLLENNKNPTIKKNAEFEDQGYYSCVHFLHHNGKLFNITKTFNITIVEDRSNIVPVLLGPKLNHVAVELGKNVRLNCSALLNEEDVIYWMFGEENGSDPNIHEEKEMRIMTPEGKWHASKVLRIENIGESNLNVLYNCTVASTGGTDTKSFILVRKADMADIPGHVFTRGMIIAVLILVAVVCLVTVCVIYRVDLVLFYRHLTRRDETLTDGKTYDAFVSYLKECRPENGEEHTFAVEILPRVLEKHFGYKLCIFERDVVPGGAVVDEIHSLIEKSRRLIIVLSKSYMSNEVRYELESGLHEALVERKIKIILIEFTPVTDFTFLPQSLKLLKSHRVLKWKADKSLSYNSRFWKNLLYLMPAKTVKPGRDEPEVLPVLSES
T1 sequence (looked up) 2: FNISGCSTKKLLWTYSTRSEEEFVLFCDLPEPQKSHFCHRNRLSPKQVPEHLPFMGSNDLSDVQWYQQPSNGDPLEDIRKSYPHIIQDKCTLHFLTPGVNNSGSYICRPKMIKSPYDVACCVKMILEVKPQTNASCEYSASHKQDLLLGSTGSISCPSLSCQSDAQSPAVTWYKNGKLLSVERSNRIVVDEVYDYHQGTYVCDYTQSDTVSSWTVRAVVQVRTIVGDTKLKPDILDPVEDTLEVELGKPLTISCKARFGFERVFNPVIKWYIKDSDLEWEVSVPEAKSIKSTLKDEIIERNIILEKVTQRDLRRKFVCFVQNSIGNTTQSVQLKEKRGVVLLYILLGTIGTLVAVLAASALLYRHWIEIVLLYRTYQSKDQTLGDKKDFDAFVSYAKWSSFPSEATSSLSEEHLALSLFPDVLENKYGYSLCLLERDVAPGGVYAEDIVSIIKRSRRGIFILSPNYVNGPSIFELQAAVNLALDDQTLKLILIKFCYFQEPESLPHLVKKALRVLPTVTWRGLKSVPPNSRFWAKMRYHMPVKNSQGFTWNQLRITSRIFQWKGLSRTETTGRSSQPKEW

[2] = target: T2, human IL-18 binding protein (IL-18BP) (human, UniProt O95998 31-194); assay: cell-based or functional assay
T2 sequence (looked up): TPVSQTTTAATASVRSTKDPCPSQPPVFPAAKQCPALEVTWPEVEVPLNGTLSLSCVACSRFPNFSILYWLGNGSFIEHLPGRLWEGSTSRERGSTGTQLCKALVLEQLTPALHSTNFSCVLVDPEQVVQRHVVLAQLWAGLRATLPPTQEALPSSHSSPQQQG

[3] = target: T3, IL-18 receptors on HEK-Blue IL-18 reporter cells (InvivoGen) (UniProt Q13478 19-541; O95256 20-599); assay: cell-based or functional assay
T3 sequence (looked up) 1: T1 sequence (looked up) 1
T3 sequence (looked up) 2: T1 sequence (looked up) 2

[4] = target: T2, human IL-18 binding protein (IL-18BP); assay: cell-based or functional assay; remark: listed apart in the source
[5] = target: T3, IL-18 receptors on HEK-Blue IL-18 …; assay: cell-based or functional assay; remark: listed apart in the source
[6] = target: T1, IL-18 receptor (IL-18Rα and IL-18Rβ); assay: cell-based or functional assay; remark: listed apart in the source
[7] = target: T2, human IL-18 binding protein (IL-18BP); assay: cell-based or functional assay; remark: listed apart in the source
[8] = target: T2, human IL-18 binding protein (IL-18BP); assay: cell-based or functional assay; remark: listed apart in the source
[9] = target: T3, IL-18 receptors on HEK-Blue IL-18 …; assay: cell-based or functional assay; remark: listed apart in the source
[10] = target: T4, human IL-18 receptor alpha (IL-18Rα) (human, UniProt Q13478 19-329, limits assumed); assay: Octet BLI
T4 construct: also called hu IL-18Ra; IL-18R alpha
T4 sequence (looked up): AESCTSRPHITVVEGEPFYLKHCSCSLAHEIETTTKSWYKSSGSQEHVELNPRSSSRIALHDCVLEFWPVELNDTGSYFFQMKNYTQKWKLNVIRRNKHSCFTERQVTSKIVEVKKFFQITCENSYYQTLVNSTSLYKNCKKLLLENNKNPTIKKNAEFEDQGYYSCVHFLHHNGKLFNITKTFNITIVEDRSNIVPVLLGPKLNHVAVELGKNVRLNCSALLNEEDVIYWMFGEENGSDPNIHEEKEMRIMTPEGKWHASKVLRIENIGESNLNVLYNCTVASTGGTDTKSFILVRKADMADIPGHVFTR
Description: (§1) Octet 96red instrument was used to determine affinities of IL18 proteins to BP or receptors. 5-10 ug/ml analyte proteins were used for loading on Sartorius tips (AHC or SA). […] 120-180 s loading, 200 s association and 800 s dissociation were used for kinetics. 3-7 data points were used to calculate affinities.

[11] = target: T5, human IL-18R alpha/beta pair (IL-18Rab) (human, UniProt Q13478 19-329; O95256 20-356); assay: Octet BLI
T5 construct: also called hu IL-18Rab
T5 sequence (looked up) 1: T4 sequence (looked up)
T5 sequence (looked up) 2: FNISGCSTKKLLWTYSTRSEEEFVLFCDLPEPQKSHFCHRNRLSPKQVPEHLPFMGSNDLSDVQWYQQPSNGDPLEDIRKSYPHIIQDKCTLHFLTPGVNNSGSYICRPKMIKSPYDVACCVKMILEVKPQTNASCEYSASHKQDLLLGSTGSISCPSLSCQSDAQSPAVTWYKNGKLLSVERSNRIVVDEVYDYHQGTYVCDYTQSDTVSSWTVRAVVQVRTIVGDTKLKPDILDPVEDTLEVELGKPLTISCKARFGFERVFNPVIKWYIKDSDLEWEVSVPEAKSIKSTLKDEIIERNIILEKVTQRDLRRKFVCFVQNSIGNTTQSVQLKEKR
Description: as §1

[12] = target: T2, human IL-18 binding protein (IL-18BP); assay: Octet BLI
Description: as §1

[13] = target: T6, human IL-18 binding protein (human, UniProt O95998 31-194); assay: cell-based or functional assay
T6 sequence (looked up): T2 sequence (looked up)

[14] = target: T7, IL-18 receptors on HEK-Blue IL-18 reporter cells (UniProt Q13478 19-541; O95256 20-599, limits assumed); assay: cell-based or functional assay
T7 sequence (looked up) 1: T1 sequence (looked up) 1
T7 sequence (looked up) 2: T1 sequence (looked up) 2

[15] = target: T2, human IL-18 binding protein (IL-18BP); assay: cell-based or functional assay; remark: listed apart in the source
[16] = target: T3, IL-18 receptors on HEK-Blue IL-18 …; assay: cell-based or functional assay; remark: listed apart in the source
[17] = target: T4, human IL-18 receptor alpha (IL-18Rα); assay: Octet BLI; remark: listed apart in the source
[18] = target: T5, human IL-18R alpha/beta pair (IL-18Rab); assay: Octet BLI; remark: listed apart in the source
[19] = target: T2, human IL-18 binding protein (IL-18BP); assay: Octet BLI; remark: listed apart in the source
[20] = target: T2, human IL-18 binding protein (IL-18BP); assay: Octet BLI; remark: listed apart in the source

B1: Comparator 1 (human IL-18 variant M51K, K53S, Q56L, P57A, M60L, S105D, D110S, N111R) (ligand)
chain: YFGKLESKLSVIRNLNDQVLFIDQGNRPLFEDMTDSDCRDNAPRTIFIISKYSDSLARGLAVTISVKCEKISTLSCENKIISFKEMNPPDNIKDTKSDIIFFQRDVPGHSRKMQFESSSYEGYFLACEKERDLFKLILKKEDELGDRSIMFTVQNED
EC50 pM, IFN gamma expression in PBMCs [1]: 0.093 pM | HEK-Blue Ec50 (pM), +IL-18BP (50 nM) [2]: 0.22 pM | HEK-Blue Ec50 (pM), -IL-18BP [3]: 0.15 pM | HEK-Blue Activity Assay Ec50 (pM), +300 nM hu IL-18BP [4]: 0.09 pM | HEK-Blue Activity Assay Ec50 (pM), -hu IL-18BP [5]: 0.08 pM | EC50 pM, IFN gamma expression in PBMCs, no BP [6]: 1.22 pM | EC50 pM, IFN gamma expression in PBMCs, + 300 nM BP [7]: 1.82 pM | Fold Change (BP/NO BP), 50 nM BP [8]: 2.5 fold | Fold Change (BP/NO BP), 300 nM BP [8]: 0.83 fold | HEK-Blue EC50 pM, +50 nM BP [8]: 0.04 pM | HEK-blue EC50 (pM) + 300 nM BP [8]: 0.11 pM | HEK-Blue EC50 pM, NO BP (50 nM BP run) [9]: 0.02 pM | HEK-Blue EC50 pM, NO BP (300 nM BP run) [9]: 0.13 pM | Kd [10]: 16 nM | Kd [11]: 0.43 nM | binding result [12]: no binding

B2: Comparator 1-monospecific KiH (Fc fusion)
chain: B1 chain
HEK-blue EC50 (pM) + 300 nM IL-18BP [13]: 0.03 pM | HEK-blue EC50 (pM) - IL-18BP [14]: 0.03 pM

B3: IL-18 variant G3V, M60K, D157E (ligand)
chain: YFVKLESKLSVIRNLNDQVLFIDQGNRPLFEDMTDSDMRDNAPRTIFIISMYKDSQPRGKAVTISVKSEKISTLSSENKIISFKEMNPPDNIKDTKSDIIFFQRSVPGHDNKMQFESSSYEGYFLASEKERDLFKLILKKEDELGDRSIMFTVQNEE
HEK-Blue Activity Assay Ec50 (pM), +300 nM hu IL-18BP [4]: 0.6 pM | HEK-Blue Activity Assay Ec50 (pM), -hu IL-18BP [5]: 0.16 pM | EC50 pM, IFN gamma expression in PBMCs, no BP [6]: 6.61 pM | EC50 pM, IFN gamma expression in PBMCs, + 300 nM BP [7]: 13 pM | Fold Change (BP/NO BP), 50 nM BP [8]: 1.74 fold | Fold Change (BP/NO BP), 300 nM BP [8]: 3.74 fold | HEK-Blue EC50 pM, +50 nM BP [8]: 0.14 pM | HEK-blue EC50 (pM) + 300 nM BP [8]: 0.6 pM | HEK-Blue EC50 pM, NO BP (50 nM BP run) [9]: 0.08 pM | HEK-Blue EC50 pM, NO BP (300 nM BP run) [9]: 0.16 pM | Kd [10]: 43 nM | Kd [11]: 0.13 nM | Kd [12]: 87 nM

B4: IL-18 variant G3R, K53S (ligand)
chain: B3 chain with V3R, K53S, K60M, E157D
EC50 pM, IFN gamma expression in PBMCs [1]: 73.8 pM | HEK-Blue Ec50 (pM), +IL-18BP (50 nM) [2]: 1.84 pM | HEK-Blue Ec50 (pM), -IL-18BP [3]: 0.31 pM | HEK-Blue Activity Assay Ec50 (pM), +50 nM hu IL-18BP [15]: 1.84 pM | HEK-Blue Activity Assay Ec50 (pM), -hu IL-18BP [16]: 0.31 pM | Kd [17]: 0.197 µM | Kd [18]: 0.09 nM | Kd [19]: 4.03 nM | Kd [20]: 4 nM | koff [20]: 0.00143 s⁻¹ | kon [20]: 356000 M⁻¹ s⁻¹

B5: IL-18 variant G3E, K53S (ligand)
chain: B3 chain with V3E, K53S, K60M, E157D
EC50 pM, IFN gamma expression in PBMCs [1]: 517 pM | HEK-Blue Ec50 (pM), +IL-18BP (50 nM) [2]: 4.41 pM | HEK-Blue Ec50 (pM), -IL-18BP [3]: 2.69 pM | HEK-Blue Activity Assay Ec50 (pM), +50 nM hu IL-18BP [15]: 4.41 pM | HEK-Blue Activity Assay Ec50 (pM), -hu IL-18BP [16]: 2.69 pM | Kd [17]: 8.92 µM | Kd [18]: 0.31 nM | Kd [19]: 396 nM | Kd [20]: 396 nM | koff [20]: 0.0311 s⁻¹ | kon [20]: 78500 M⁻¹ s⁻¹

B6: G3T/M60K-monospecific KiH (Fc fusion)
chain: B3 chain with V3T, E157D
HEK-blue EC50 (pM) + 300 nM IL-18BP [13]: 2.64 pM | HEK-blue EC50 (pM) - IL-18BP [14]: 0.27 pM

B7: G3T/E6K/K53A-monospecific KiH (Fc fusion)
chain: B3 chain with V3T, E6K, K53A, K60M, E157D
HEK-blue EC50 (pM) + 300 nM IL-18BP [13]: 1.16 pM | HEK-blue EC50 (pM) - IL-18BP [14]: 0.04 pM

B8: G3V/M60K-monospecific KiH (Fc fusion)
chain: B3 chain with E157D
HEK-blue EC50 (pM) + 300 nM IL-18BP [13]: 2.01 pM | HEK-blue EC50 (pM) - IL-18BP [14]: 0.06 pM
